Laboratory results: patent US10370436B2, “Anti-pseudomonas Psl binding molecules and uses thereof” (priority 2011, dated 2019)

Tested on: Psl (enriched carbohydrate purified from PAO1ΔwbpL/algD/pelA)
Assay: Psl capture binding assay (FORTEBIO OCTET 384)
Set-up: species or system Pseudomonas aeruginosa
Details: FIG. 3K; for capture of Psl antigen by biosensor-bound antibody: antibody bound to aminopropylsilane biosensors
Description: To confirm that all of the antibodies bound to the same antigen, a Psl capture binding assay was performed using a FORTEBIO® OCTET® 384 instrument as described above. The antigen was proteinase K-treated enriched carbohydrate purified from PAO1ΔwbpL/algD/pelA (O-antigen-, alginate- and Pel exopolysaccharide-deficient). Individual antibodies were bound to aminopropylsilane biosensors followed by blocking and the addition of the enriched carbohydrate antigen. After washing to remove unbound antigen, binding of unlabelled mAbs to captured antigen was assessed.

| Molecule | reactivity of unlabelled mAb to captured Psl | capture of Psl antigen by biosensor-bound antibody |
| --- | --- | --- |
| WapR-001: anti-Psl antibody, VH SEQ ID NO: 5 and VL SEQ ID NO: 6 (antibody, V domains shown, WapR-001 VH; WapR-001 VL) VH: EVQLLESGGGLVQPGGSLRLSCSASGFTFSRYPMHWVRQAPGKGLEYVSDIGTNGGSTNYADSVKGRFTISRDNSKNTVYLQMSSLRAEDTAVYHCVAGIAAAYGFDVWGQGTMVTVSS VL: QAGLTQPASVSGSPGQSITISCTGTSSDIATYNYVSWYQQHPGKAPKLMIYEGTKRPSGVSNRFSGSKSGNTASLTISGLQAEDEADYYCSSYARSYTYVFGTGTELTVL | reacted | capable of capturing antigen |
| WapR-002: anti-Psl antibody, VH SEQ ID NO: 7 and VL SEQ ID NO: 8 (antibody, V domains shown, WapR-002 VH; WapR-002 VL) VH: QVQLVQSGGGLVQPGGSLRLSCSASGFTFSSYPMHWVRQAPGKGLDYVSDISPNGGSTNYADSVKGRFTISRDNSKNTLFLQMSSLRAEDTAVYYCVMGLVPYGFDIWGQGTLVTVSS VL: QTVVTQPASVSGSPGQSITISCTGTSSDVGGYNYVSWYQQHPGKAPKLMIYEVSNRPSGVSNHFSGSKSGNTASLTISGLQAEDEADYYCSSYTTSSTYVFGTGTKVTVL | reacted | capable of capturing antigen |
| WapR-003: anti-Psl antibody, VH SEQ ID NO: 9 and VL SEQ ID NO: 10 (antibody, V domains shown, WapR-003 VH; WapR-003 VL) VH: QMQLVQSGGGLVQPGGSLRLSCSASGFTFSSYPMHWVRQAPGKGLDYVSDISPNGGATNYADSVKGRFTISRDNSKNTVYLQMSSLRAEDTAVYYCVMGLVPYGFDNWGQGTMVTVSS VL: QTVVTQPASVSASPGQSITISCAGTSGDVGNYNFVSWYQQHPGKAPKLLIYEGSQRPSGVSNRFSGSRSGNTASLTISGLQAEDEADYYCSSYARSYTYVFGTGTKLTVL | reacted | capable of capturing antigen |
| WapR-007: antibody, VH SEQ ID NO: 13 and VL SEQ ID NO: 14 (antibody, V domains shown, WapR-007 VH; WapR-007 VL) VH: EVQLVQSGADVKKPGASVRVTCKASGYTFTGHNIHWVRQAPGQGLEWMGWINPDSGATSYAQKFQGRVTMTRDTSITTAYMDLSRLRSDDTAVYYCATDTLLSNHWGQGTLVTVSS VL: SSELTQDPAVSVALGQTVRITCQGDSLRSYYTNWFQQKPGQAPLLVVYAKNKRPPGIPDRFSGSSSGNTASLTITGAQAEDEADYYCHSRDSSGNHVVFGGGTKLTVL | Minimal reactivity | capable of capturing antigen |
